In the supplement of paper PMC10567573:

B1: TRIM43 (parent)
chain: NNSWIRKNSTMVNSEDIFLLLCLK
B2: SMOC2 (parent)
chain: DCAGSPQKPLCASDGRTFLSRCEF

Variants of: B1
Test: protein stability index of a GFP-peptide fusion (GPS, HEK-293T) (PSI 1-6); higher = more stable
Settings: c terminus: a fixed tail appended
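Also: lentivirally expressed fusions sorted by FACS into six bins by GFP to DsRed ratio, PSI derived from sequencing read proportions per bin multiplied by bin number.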

Protein stability index of substitutions, site by site:
C22: N 2.32, V 2.96, T 2.19, P 2.44, M 2.61, R 1.91, Q 2.06, S 2.72, Y 3.36, W 2.66
K24: T 2.05, D 3.92, C 2.79, N 2.86, I 2.33, G 3.84, Y 3.18, W 2.28, A 3.16, E 4.39, P 3.69, V 2.38, H 2.87, L 2.72, Q 3.08, S 3.16, R 3.57, M 3.1
L23: N 1.66, F 3.62, P 2.15, Q 2.38, E 1.93, K 1.54, T 2.42, D 1.95, C 1.84, H 2.61, W 3.66, G 1.44, Y 2.25, R 1.55, A 2.83, S 2.42

Variants of: B2
Test: as above
Settings: c terminus: a fixed tail appended

Protein stability index: each site, then its substitutions
G4: C 3.17, H 3.44, V 2.47, E 3.83, I 2.87, W 2.32, Y 2.22, T 3.2, N 2.62, L 2.56, M 2.32, A 2.77, F 2.23, S 2.24, Q 2.88, D 4.36, R 2.08, K 2.65, P 2.56
D14: C 1.6, F 1.81, K 2.4, A 2.52, S 3.19, Q 2.39, G 2.56, Y 2.26, V 2.6, M 2, R 2.03, I 2.12, T 2.82, P 2.36, W 1.89, N 2.47, E 2.54, L 2.2, H 1.78
A3: F 3.16, Y 2.02, H 2.29, T 2.56, I 2.71, N 2.66, E 3.01, V 2.66, R 2.38, L 2.73, K 2.89, W 2.21, D 2.95, P 2.37, Q 2.82, S 2.32
A12: H 2.18, P 3.11, I 2.5, F 1.89, S 4.06, R 2.14, D 2.88, Y 2.47, M 2.7, T 3.32, C 1.59, V 2.97, E 3.96, N 2.94, L 2.56, G 2.29, Q 3.1, W 1.51, K 2.59
G15: W 2.06, N 3.01, S 2.5, K 2.3, F 2.42, E 4.05, M 2.81, D 3.49, C 1.99, V 2.03, T 2.65, A 4.08, Y 2.81, H 2.27, I 2.76, R 2.83, L 2.17, P 3, Q 2.57
P9: C 2.65, F 1.99, A 3.42, H 2.36, I 2.04, V 2.4, D 2.97, G 2.73, W 1.04, Q 3.13, M 2.63, S 3.08, T 2.69, R 2.77, E 2.72, Y 2.47, K 1.85
C11: F 1.8, W 2.41, A 2.7, Y 2.58, K 2.72, S 3.19, V 2.66, I 2.56, L 3.3, G 2.04, H 2.73, Q 2.82, M 3.23, P 3.47
